Source: the supplement of paper PMC10567573

B1: ZNF511 (parent)
chain: EPLPVERDPAAGAAPFRFVARPVR

Variants of: B1
Assay: protein stability index of a GFP-peptide fusion (GPS, HEK-293T) (PSI 1-6); higher = more stable
Settings: c terminus: a fixed tail appended
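Also: lentivirally expressed fusions sorted by FACS into six bins by GFP to DsRed ratio, PSI derived from sequencing read proportions per bin multiplied by bin number.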

Compared with EPLPVERDPAAGAAPFRCVARPVR [F18C], EPLPVERDPAAGAAPFRDVARPVR [F18D] is higher in protein stability index: 4.59 for the first, 4.97 for the second.

First: EPLPVERDPAAGAAPFREVARPVR [F18E]
Second: EPLPVERDPAAGAAPFRGVARPVR [F18G]
The protein stability index of the first is higher: 5.37 for the first, 5.14 for the second.

EPLPVERDPAAGAAPFRHVARPVR [F18H] and EPLPVERDPAAGAAPFRIVARPVR [F18I] are the same in protein stability index: 4.71 for the first, 4.71 for the second.

Going from EPLPVERDPAAGAAPFRKVARPVR [F18K] to EPLPVERDPAAGAAPFRLVARPVR [F18L], the protein stability index falls from 4.87 to 4.49.

First: EPLPVERDPAAGAAPFRMVARPVR [F18M]
Second: EPLPVERDPAAGAAPFRNVARPVR [F18N]
The protein stability index of the first is lower: 4.6 for the first, 4.99 for the second.

Going from EPLPVERDPAAGAAPFRPVARPVR [F18P] to EPLPVERDPAAGAAPFRQVARPVR [F18Q], the protein stability index falls from 5.01 to 4.79.

Compared with EPLPVERDPAAGAAPFRRVARPVR [F18R], EPLPVERDPAAGAAPFRSVARPVR [F18S] is higher in protein stability index: 4.91 for the first, 5.18 for the second.

First: EPLPVERDPAAGAAPFRTVARPVR [F18T]
Second: EPLPVERDPAAGAAPFRVVARPVR [F18V]
The protein stability index of the first is higher: 4.86 for the first, 4.6 for the second.

First: EPLPVERDPAAGAAPFRWVARPVR [F18W]
Second: EPLPVERDPAAGAAPFRYVARPVR [F18Y]
The protein stability index of the first is higher: 4.43 for the first, 4.32 for the second.

Compared with EPLPVERDPAAGAAPFRFAARPVR [V19A], EPLPVERDPAAGAAPFRFCARPVR [V19C] is lower in protein stability index: 4.47 for the first, 3.22 for the second.

Compared with EPLPVERDPAAGAAPFRFDARPVR [V19D], EPLPVERDPAAGAAPFRFEARPVR [V19E] is lower in protein stability index: 4.67 for the first, 4.57 for the second.

First: EPLPVERDPAAGAAPFRFFARPVR [V19F]
Second: EPLPVERDPAAGAAPFRFGARPVR [V19G]
The protein stability index of the first is lower: 3.88 for the first, 5.14 for the second.

First: EPLPVERDPAAGAAPFRFHARPVR [V19H]
Second: EPLPVERDPAAGAAPFRFIARPVR [V19I]
The protein stability index of the first is lower: 1.62 for the first, 2.89 for the second.

Compared with EPLPVERDPAAGAAPFRFKARPVR [V19K], EPLPVERDPAAGAAPFRFLARPVR [V19L] is lower in protein stability index: 4.83 for the first, 3.97 for the second.

First: EPLPVERDPAAGAAPFRFMARPVR [V19M]
Second: EPLPVERDPAAGAAPFRFNARPVR [V19N]
The protein stability index of the first is lower: 4.1 for the first, 4.36 for the second.

Going from EPLPVERDPAAGAAPFRFPARPVR [V19P] to EPLPVERDPAAGAAPFRFQARPVR [V19Q], the protein stability index falls from 5.1 to 2.99.

Going from EPLPVERDPAAGAAPFRFRARPVR [V19R] to EPLPVERDPAAGAAPFRFSARPVR [V19S], the protein stability index rises from 4.22 to 4.62.

Going from EPLPVERDPAAGAAPFRFTARPVR [V19T] to EPLPVERDPAAGAAPFRFWARPVR [V19W], the protein stability index falls from 3.97 to 3.65.

Going from EPLPVERDPAAGAAPFRFYARPVR [V19Y] to EPLPVERDPAAGAAPFRFVCRPVR [A20C], the protein stability index falls from 4.31 to 1.61.

First: EPLPVERDPAAGAAPFRFVDRPVR [A20D]
Second: EPLPVERDPAAGAAPFRFVERPVR [A20E]
The protein stability index of the first is lower: 2.46 for the first, 3.03 for the second.

First: EPLPVERDPAAGAAPFRFVFRPVR [A20F]
Second: EPLPVERDPAAGAAPFRFVGRPVR [A20G]
The protein stability index of the first is higher: 3.42 for the first, 2.04 for the second.

Compared with EPLPVERDPAAGAAPFRFVHRPVR [A20H], EPLPVERDPAAGAAPFRFVIRPVR [A20I] is higher in protein stability index: 2.81 for the first, 3.21 for the second.

First: EPLPVERDPAAGAAPFRFVKRPVR [A20K]
Second: EPLPVERDPAAGAAPFRFVLRPVR [A20L]
The protein stability index of the first is lower: 1.97 for the first, 3.35 for the second.

Going from EPLPVERDPAAGAAPFRFVMRPVR [A20M] to EPLPVERDPAAGAAPFRFVNRPVR [A20N], the protein stability index rises from 2.49 to 2.61.

Compared with EPLPVERDPAAGAAPFRFVPRPVR [A20P], EPLPVERDPAAGAAPFRFVQRPVR [A20Q] is higher in protein stability index: 2.2 for the first, 2.4 for the second.

Going from EPLPVERDPAAGAAPFRFVRRPVR [A20R] to EPLPVERDPAAGAAPFRFVSRPVR [A20S], the protein stability index rises from 1.67 to 2.05.

Going from EPLPVERDPAAGAAPFRFVTRPVR [A20T] to EPLPVERDPAAGAAPFRFVVRPVR [A20V], the protein stability index falls from 2.8 to 2.46.

First: EPLPVERDPAAGAAPFRFVWRPVR [A20W]
Second: EPLPVERDPAAGAAPFRFVYRPVR [A20Y]
The protein stability index of the first is lower: 2.56 for the first, 4.17 for the second.

Compared with EPLPVERDPAAGAAPFRFVAAPVR [R21A], EPLPVERDPAAGAAPFRFVACPVR [R21C] is lower in protein stability index: 2.46 for the first, 1.7 for the second.

Compared with EPLPVERDPAAGAAPFRFVADPVR [R21D], EPLPVERDPAAGAAPFRFVAEPVR [R21E] is higher in protein stability index: 2.27 for the first, 2.35 for the second.

First: EPLPVERDPAAGAAPFRFVAFPVR [R21F]
Second: EPLPVERDPAAGAAPFRFVAGPVR [R21G]
The protein stability index of the first is higher: 2.51 for the first, 2.03 for the second.

First: EPLPVERDPAAGAAPFRFVAHPVR [R21H]
Second: EPLPVERDPAAGAAPFRFVAIPVR [R21I]
The protein stability index of the first is lower: 2.18 for the first, 2.58 for the second.

Going from EPLPVERDPAAGAAPFRFVAKPVR [R21K] to EPLPVERDPAAGAAPFRFVALPVR [R21L], the protein stability index falls from 2.71 to 2.07.

First: EPLPVERDPAAGAAPFRFVAMPVR [R21M]
Second: EPLPVERDPAAGAAPFRFVANPVR [R21N]
The protein stability index of the first is higher: 1.95 for the first, 1.59 for the second.

Going from EPLPVERDPAAGAAPFRFVAPPVR [R21P] to EPLPVERDPAAGAAPFRFVAQPVR [R21Q], the protein stability index falls from 3.54 to 2.96.

Compared with EPLPVERDPAAGAAPFRFVASPVR [R21S], EPLPVERDPAAGAAPFRFVATPVR [R21T] is higher in protein stability index: 2.14 for the first, 2.57 for the second.

Going from EPLPVERDPAAGAAPFRFVAVPVR [R21V] to EPLPVERDPAAGAAPFRFVAWPVR [R21W], the protein stability index falls from 1.8 to 1.41.

First: EPLPVERDPAAGAAPFRFVAYPVR [R21Y]
Second: EPLPVERDPAAGAAPFRFVARAVR [P22A]
The protein stability index of the first is lower: 1.76 for the first, 2.64 for the second.

First: EPLPVERDPAAGAAPFRFVARCVR [P22C]
Second: EPLPVERDPAAGAAPFRFVARDVR [P22D]
The protein stability index of the first is lower: 2.17 for the first, 2.77 for the second.

Compared with EPLPVERDPAAGAAPFRFVAREVR [P22E], EPLPVERDPAAGAAPFRFVARFVR [P22F] is higher in protein stability index: 2.62 for the first, 3.22 for the second.

Going from EPLPVERDPAAGAAPFRFVARGVR [P22G] to EPLPVERDPAAGAAPFRFVARHVR [P22H], the protein stability index rises from 1.85 to 1.93.

First: EPLPVERDPAAGAAPFRFVARIVR [P22I]
Second: EPLPVERDPAAGAAPFRFVARKVR [P22K]
The protein stability index of the first is higher: 3.15 for the first, 2.22 for the second.

Compared with EPLPVERDPAAGAAPFRFVARLVR [P22L], EPLPVERDPAAGAAPFRFVARMVR [P22M] is higher in protein stability index: 2.33 for the first, 2.48 for the second.

Compared with EPLPVERDPAAGAAPFRFVARNVR [P22N], EPLPVERDPAAGAAPFRFVARQVR [P22Q] is lower in protein stability index: 2.31 for the first, 2.02 for the second.

First: EPLPVERDPAAGAAPFRFVARRVR [P22R]
Second: EPLPVERDPAAGAAPFRFVARSVR [P22S]
The protein stability index of the first is higher: 2.8 for the first, 2.51 for the second.

Compared with EPLPVERDPAAGAAPFRFVARTVR [P22T], EPLPVERDPAAGAAPFRFVARVVR [P22V] is higher in protein stability index: 1.92 for the first, 2.6 for the second.

Going from EPLPVERDPAAGAAPFRFVARWVR [P22W] to EPLPVERDPAAGAAPFRFVARYVR [P22Y], the protein stability index falls from 2.66 to 2.32.
